For the assay, the target named is Soc-SpyCatcher fusion protein (displayed on T4 phage: T4-SpyCatcher phage) (bacteriophage T4). The assay can be described thus: co-sedimentation.

In turn, “S-ecto-6P-SpyTagged trimer (prefusion-stabilized hexa-Pro SARS-CoV-2 spike ectodomain with C-terminal SpyTag) (from UniProt P0DTC2 14-1208) (domain or fragment)” had a copies per capsid (S-trimers per phage capsid) of 100.

(Values after paper PMC8442874.)
